Publication doi:10.1101/2023.03.15.532789
pKd: −log10 of the molar value.

Experiments:
[1] = target: hDLG1 PDZ1 domain (human) (UniProt Q12959); assay: NMR titration
[2] = target: hDLG1 PDZ2 domain (human) (UniProt Q12959); assay: ITC
[3] = target: hDLG1 PDZ1 domain (human) (UniProt Q12959); assay: ITC

Sequence of hDLG1 PDZ1 domain (human) (Q12959 whole entry, the tested form may be a part): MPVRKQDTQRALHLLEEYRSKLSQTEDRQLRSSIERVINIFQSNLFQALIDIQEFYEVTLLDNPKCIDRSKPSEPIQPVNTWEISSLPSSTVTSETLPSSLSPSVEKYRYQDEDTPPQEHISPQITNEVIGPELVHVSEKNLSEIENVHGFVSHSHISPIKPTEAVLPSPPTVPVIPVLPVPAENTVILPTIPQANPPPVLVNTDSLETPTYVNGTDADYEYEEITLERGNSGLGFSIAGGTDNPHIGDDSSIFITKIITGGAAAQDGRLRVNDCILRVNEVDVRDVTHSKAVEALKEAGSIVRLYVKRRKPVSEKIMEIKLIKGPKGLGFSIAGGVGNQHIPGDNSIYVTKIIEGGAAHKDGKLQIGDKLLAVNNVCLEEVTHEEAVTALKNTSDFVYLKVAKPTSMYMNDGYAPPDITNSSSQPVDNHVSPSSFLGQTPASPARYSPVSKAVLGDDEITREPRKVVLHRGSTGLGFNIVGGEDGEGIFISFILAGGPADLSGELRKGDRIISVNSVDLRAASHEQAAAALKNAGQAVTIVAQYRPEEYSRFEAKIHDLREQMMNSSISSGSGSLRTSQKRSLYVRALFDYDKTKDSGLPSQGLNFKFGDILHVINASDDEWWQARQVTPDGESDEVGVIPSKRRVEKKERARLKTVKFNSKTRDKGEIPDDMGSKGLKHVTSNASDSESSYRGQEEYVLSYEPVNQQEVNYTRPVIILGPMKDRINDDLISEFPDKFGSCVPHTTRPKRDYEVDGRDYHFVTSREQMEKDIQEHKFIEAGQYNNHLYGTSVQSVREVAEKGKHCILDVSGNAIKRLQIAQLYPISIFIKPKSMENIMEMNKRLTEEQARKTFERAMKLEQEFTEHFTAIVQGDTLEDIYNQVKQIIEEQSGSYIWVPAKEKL
Sequence of hDLG1 PDZ2 domain (human) (Q12959 whole entry, the tested form may be a part): as above

Substance | pKd [1] | pKd [2] | dH [2] | stoichiometry N [2] | pKd [3] | dH [3] | stoichiometry N [3]
C-terminally amidated Tax-1 peptide (Tax-1mod) | 3.02 |  |  |  |  |  | 
Tax-1 10-mer peptide (H-…-OH) |  | 6.05 | -10.4 kcal/mol | 0.99 | 5.57 | -8 kcal/mol | 1.03
